Test results as given in patent US11325952B2, “Light-gated signaling modulation” (Korea University Research and Business Foundation, priority 2016, dated 2022).

B1: BLITz-1: AsLOV2 Jα-helix C-terminal deletion variant with inserted TEV cleavage sequence, in TM-CIBN-TEV-N-AsLOV2-TEVseq-tTA fusion protein (protein)
chain: EFLATTLERIEKNFVITDPRLPDNPIIFASDSFLQLTEYSREEILGRNCRFLQGPETDRATVRKIRDAIDNQTEVTVQLINYTKSGKKFWNVFHLQPMRDYKGDVQYFIGVQLDGTERLHGAAEREAVCLIKKTAFQIA
modifications: BLITz-1 AsLOV2 (1-139 A.A.)
B2: BLITz-6: AsLOV2 Jα-helix C-terminal deletion variant with TEVseq; selected for the neuromodulation mapping system (protein)
chain: EFLATTLERIEKNFVITDPRLPDNPIIFASDSFLQLTEYSREEILGRNCRFLQGPETDRATVRKIRDAIDNQTEVTVQLINYTKSGKKFWNVFHLQPMRDYKGDVQYFIGVQLDGTERLHGAAEREAVCLIKKTAFQI
modifications: BLITz-6 AsLOV2 (1-138 A.A.)

Assays:
[1] = system: hippocampal culture neurons; experiment: Cal-Light test in dissociated hippocampal culture neurons (EGFP reporter); type: cell-based, rat
cortical slice culture = experiment: Cal-Light test in cortical slice culture (EGFP reporter); type: cell-based; conditions: further increase of neuronal activity by bicuculine application
Excerpt: FIG. 18. Cal-Light test in cortical slice culture. AAV expressing Cal-Light constructs and EGFP reporter were infected to cortical slice culture at DIV3 (Days in vitro). […] Examples of action potentials were plotted at the top left panel. Electrical stimulation reliably triggered action potentials measured in layer 2/3 pyramidal neurons. Two days later, slices were fixed and images were taken by confocal microscopy. […] Blue light or high frequency stimuli alone was not able to increase the level of EGFP expression.
[…] Cortical slice culture were made at postnatal day 3 and AAV expressing Cal-Light constructs including an EGFP reporter were infected to slices at DIV 3 (Days in vitro). After 12 days of expression, a bipolar stimulation electrode was placed in layer 2/3. […] This stimulation protocol was repeated 30 times, resulting in triggering about 300 action potentials in total. Two days later, slices were fixed and gene expression pattern was imaged by confocal microscopy.

HEK293T cells [2] = experiment: SEAP chemiluminescent assay of BLITz constructs, light-induced gene expression; type: cell-based; conditions: for light-induced gene expression: blue light; for background (baseline) gene expression level: dark state
Method: HEK293T cells were grown in high glucose Dulbecco's Modified Eagle Medium (DMEM) (Gibco, CA, USA) containing 10% fetal bovine serum (Cat #10438-018, Gibco) and 1% penicillin-streptomycin (Invitrogen, NY, USA). Cells were incubated at 37° C. and under 10% CO2 conditions. For the experiment, all dishes and coverslip were pre-coated with a 1 mg/ml Poly-D-Lysine hydrobromide (Cat #P0899, Sigma-Aldrich, St. Louis, Mo., USA) solution for 2 hrs. After 0.25% trypsin (Cat #25200, Gibco) treatment for 2 min, detached cells were collected and the total cell numbers were counted. Dissociated cells were plated at 2×10^5 cells per 12 mm coverslip. 24 hrs later, DNA plasmid vectors were transfected using the calcium phosphate transfection kit (Clontech, CA, USA). The mixture of the DNA solution was slowly added into 2× Hepes Buffered Saline. After 1 hr incubation, precipitated solutions were added into each well.
Blue light was illuminated by 465 nm wavelength blue LED array (LED wholesalers, Hayward, Calif., USA) that was controlled by a high-accuracy digital electronic timer (Model 451, GraLab, Centerville, Ohio, USA). The LED array was installed inside the 37° C. and 10% CO2 incubator. One transparent blank plate with 2 cm height was inserted between the LED source and the sample to inhibit potential undesirable heating caused by the direct contact of the LED. In the experimental setup, the power of blue light at the specimen was 1.7 mW, measured by a power meter (PM100D, ThorLabs, Newton, N.J., USA). To make a dark condition, all lights were prevented by wrapping culture plates with an aluminum foil, and all experimental procedures were carried out under dim red light.
For the quantification of gene-expression levels, a secreted embryonic alkaline phosphatase (SEAP) chemiluminescent assay was used. All reagents for the SEAP assay were purchased from InvivoGen (San Diego, Calif., USA). 40 μl of sample was collected from the medium of each well and transferred into 96-wells plate. Samples were pre-heated in a 60° C. incubator for 10 m to inhibit the activity of endogenous alkaline phosphatase. All mixtures were added into a single master tube including SEAP substrates and L-homoarginine. The mixed solutions were carefully added into each sample onto 96-wells plate without bubbles. The chemiluminescence of each sample was measured by a micro-plate reader (SpectraMax Plus 384, Molecular Devices, Sunnyvale, Calif., USA) at 37° C. at 405 nm. Assays were made at every 30 s for 2 hrs. All data and the calculation of Vmax were acquired by a SoftMax Pro 5.4.1 (Molecular Devices).
Thus, to prevent access by TEV protease in the dark state, but to allow complete access upon blue light illumination, the C-terminal region of the Jα-helix on AsLOV2 with the TEVseq was modified (FIG. 1a, b). […]

HEK293T cells [3] = experiment: EGFP expression reporter assay of BLITz constructs; type: cell-based; conditions: dark vs blue light
Excerpt: FIG. 1: Development of BLITz system. (a) Schematic drawing of BLITz proteins and simple diagram of light-induced gene expression. The major protein body, TM-CIBN-TEV-N-AsLOV2-TEVseq-TetR-VP16 (tTA), is targeted to a membrane with a transmembrane domain (TM). CRY2PHR-TEV-C is localized in the cytosol. Blue light causes interaction of CRY2PHR with CIBN, and TEV-C and TEV-N subsequently interact with each other. At the same time, TEVseq is unmasked due to conformational changes of AsLOV2 Jα-helix. When these two light-dependent processes are satisfied, TEVseq cleaves TetR-VP16, which translocates to the nucleus and causes targeted gene expression. (b) Design of TEVseq insertion into Jα-helix. […]
HEK293T cells were grown in high glucose Dulbecco's Modified Eagle Medium (DMEM) (Gibco, CA, USA) containing 10% fetal bovine serum (Cat #10438-018, Gibco) and 1% penicillin-streptomycin (Invitrogen, NY, USA). […] After 0.25% trypsin (Cat #25200, Gibco) treatment for 2 min, detached cells were collected and the total cell numbers were counted. […]
Blue light was illuminated by 465 nm wavelength blue LED array (LED wholesalers, Hayward, Calif., USA) that was controlled by a high-accuracy digital electronic timer (Model 451, GraLab, Centerville, Ohio, USA). […] In the experimental setup, the power of blue light at the specimen was 1.7 mW, measured by a power meter (PM100D, ThorLabs, Newton, N.J., USA). […]

| Molecule | reporter EGFP gene expression level [1] | EGFP expression (cortical slice culture) | light-induced gene expression (HEK293T cells [2]) | background (baseline) gene expression level (HEK293T cells [2]) | EGFP signals (HEK293T cells [3]) |
| --- | --- | --- | --- | --- | --- |
| NC1=N[C@H](O)[C@H]2[C@H]3O[C@]4(O)O[C@@H]([C@@H](O)[C@@]2(N1)[C@@H]4O)[C@]3(O)CO [TTX, tetrodotoxin] | kept low | – | – | – | – |
| CN1CCc2cc3c(cc2[C@H]1[C@@H]1OC(=O)c2c1ccc1c2OCO1)OCO3 [bicuculine] | – | significant increase | – | – | – |
| B1 | – | – | high | completely abolished | detected only when blue light was illuminated |
| B2 | – | – | high | completely abolished | detected only when blue light was illuminated |
